Columns and labels:
VapB46;VapC46 = VapB46;VapC46 (Mycobacterium tuberculosis …, UniProt P9WF13;O50411 1-102;1-130, |); assay: EMSA
VapB27;VapC27 = VapB27;VapC27 (Mycobacterium tuberculosis …, UniProt O07779;P9WF83 1-78;1-137, |); assay: EMSA
VapB27;VapC27, sequence (O07779 whole entry, chain 1 of 2): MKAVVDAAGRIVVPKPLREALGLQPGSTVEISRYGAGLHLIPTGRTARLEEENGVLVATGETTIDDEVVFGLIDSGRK
VapB27;VapC27, sequence (P9WF83 whole entry, chain 2 of 2): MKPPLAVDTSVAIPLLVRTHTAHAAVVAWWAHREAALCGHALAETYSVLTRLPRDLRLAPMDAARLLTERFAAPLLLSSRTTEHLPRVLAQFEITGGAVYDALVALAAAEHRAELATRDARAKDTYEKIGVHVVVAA

VapB46;VapC46, sequence (P9WF13 whole entry, chain 1 of 2): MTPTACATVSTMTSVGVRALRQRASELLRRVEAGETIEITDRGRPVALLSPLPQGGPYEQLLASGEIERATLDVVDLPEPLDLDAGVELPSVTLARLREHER
VapB46;VapC46, sequence (O50411 whole entry, chain 2 of 2): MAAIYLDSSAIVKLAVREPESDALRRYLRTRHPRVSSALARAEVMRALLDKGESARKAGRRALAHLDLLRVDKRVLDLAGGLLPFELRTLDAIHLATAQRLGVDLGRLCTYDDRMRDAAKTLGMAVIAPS

B1: vapB46 promoter oligo (dsDNA)
DNA 1: TCCTCCCAGCTCAGCGCCAACCAACCGAGGAACAACGCGCCGACTTTTTCAG
DNA 2: CTGAAAAAGTCGGCGCGTTGTTCCTCGGTTGGTTGGCGCTGAGCTGGGAGGA
- binding result (VapB46;VapC46): binds

B2: vapB27 promoter oligo (dsDNA)
DNA 1: CGGTGAGTCGACTTCCGCACCTGAGTGGGAAGCCATTGGTATCGTATTCCCATGA
DNA 2: TCATGGGAATACGATACCAATGGCTTCCCACTCAGGTGCGGAAGTCGACTCACCG
- binding result (VapB27;VapC27): binds
